According to the DeepSol protein solubility set:

Assay: soluble on expression in E. coli; label from the status in PepcDB or PDB records

Sequence: MKLAKRVAALTPSATLEITAKAQALKAEGHDVIGLGAGEPDFNTPEHIMDAAHKAMLEGHTKYTPTGGLQALKQEIVKKFTRDQGIAYDPSEIIVCNGAKHALYTLFQVLLDEGDEVIIPTPYWVSYPEQVKLAGGKPVYVEGLEGNEYKITAEQLREAITEKTKAVIINSPSNPTGMIYSKEELQQLGEVCLEHDILIVSDEIYEKLIYGGAEYTSIAQLSNALKEQTLIINGVSKSHSMTGWRIGYAAGNKQLIKAMTNLASHSTSNPTSIAQYGAIAAYAGSQEPVETMRQAFEERLNIIYDKLIQIPGFTCIKPQGAFYLFPNVKEAVALSGYETVDEWAKALLEEEKVALVPGTGFGAPNNVRLSYATSLEQVEKALERIHTFMKSKVQA
- soluble on expression in E. coli: not soluble

Sequence: MGSDKIHHHHHHMDSLVVPGLDTLRRWLDEIGISFFECDSCQALHLPHMQNFDGIFDAKIDLVDNVVLFSALAEVKPSALLALSADLSAINASSLTVKAFIDIQDDNLPKLVVCQSLSIGPGVTMEQFAWFFRQSEEQISMVILEAGANQLLYKGEEEEPAAENVQYHFLH
- soluble on expression in E. coli: not soluble

Sequence: MNTREVELRGHIIDSLILPRALDIIMDMGGDFQILEIDIGKRKSDPSHARILVEAETPSLLNQILDELGEIGASIAEIKEAELRRAPMDRVLPDDFYSTTNHQTFIYHGGEWVEVEGIEMDCMIVVDPESRTARCKPIREIKKGDLVVVGREGIKVVPPERPRGKQGVFEFMGSEVSSEKPLVTTIKKIASEITEIKKRGGRIGLVGGPAIVHTGSAPVIAEMIRLGFIDVLFAGNALATHDIECALYGTSLGVDIDRGEAVSRGHRHHINAINEINRAGSIRDAVEQGVLTSGIMYECVKNDVPFVLAGSIRDDGPLPDVITDVMEAQNEMRKYVQDLDMVIMIATMLHSIATGNILPSRVKTICVDINPATVTKLSDRGSSQAVSVVTDVGAFIPILLHEIKKMNGLGDLEHHHHHH
- soluble on expression in E. coli: soluble

Sequence: MAHHHHHHMDRLAGSFLSNGDVANASSLYNSLEKLNPTRYSRMARICRVLLNPQGVPLPHRHLDICEALLDPLVPPEVLLRDSAENVQKSFQRLAVCAHPDKNPSPSANEAFLRLTMMKDKALELLRNGVGRKCDGATEAPPGKAADSNGGKGKPKMQGSGPAVPTVAHRRRPLRPGVPLPAAATAVTSDINTAAAVSSKISQLRRTKITLNALKRKDIADDFEIFSATQRTTAVQSEVSHSDVGEDHLATTVPVMSTKERARCANRRRSQSSAPQEKTTTVPRASSPNSNPLLSSSLYYAMPVSPHKPLSPSPQTLEDPTGSVKSSGAGDRDASALYSPFIPTAAIPADSDAIRRQIDEACLRLREMRLQHTTVRLDLDLSFEAYERSKQPQ
- soluble on expression in E. coli: not soluble

Sequence: MSISDTVKRAREAFNSGKTRSLQFRIQQLEALQRMINENLKSISGALASDLGKNEWTSYYEEVAHVLEELDTTIKELPDWAEDEPVAKTRQTQQDDLYIHSEPLGVVLVIGAWNYPFNLTIQPMVGAVAAGNAVILKPSEVSGHMADLLATLIPQYMDQNLYLVVKGGVPETTELLKERFDHIMYTGSTAVGKIVMAAAAKHLTPVTLELGGKSPCYVDKDCDLDVACRRIAWGKFMNSGQTCVAPDYILCDPSIQNQIVEKLKKSLKDFYGEDAKQSRDYGRIINDRHFQRVKGLIDNQKVAHGGTWDQSSRYIAPTILVDVDPQSPVMQEEIFGPVMPIVCVRSLEEAIQFINQREKPLALYVFSNNEKVIKKMIAETSSGGVTANDVIVHITVPTLPFGGVGNSGMGAYHGKKSFETFSHRRSCLVKSLLNEEAHKARYPPSPAKMPRH
- soluble on expression in E. coli: soluble

Sequence: EFIGCNDHTVVIEDDGRRWVTREPALVYFNKHTWFNVVAMIRDSGVSYYCNIASPFVLDREALKYVDYDLDVKVFPNGERRLLDMDEFEQFSKKWRYP
- soluble on expression in E. coli: not soluble

Sequence: MPVVTAVGRRRGFAMPWVSTARSGAVMLANYSAGVCGRVSSPGLNVRKMCLKANTPGAVTWLDTPKRFLSTQTASRCMAVNSSDVVTGRIDPQVLHTPLNTDVDGYAHAMHSSINSGPLEYLPATFSVFPALGDVGDLGGGVGAATYALDRLSNMRSGACVGGGESPWRSLMT
- soluble on expression in E. coli: not soluble

Sequence: MAIEIKVPDIGADEVEITEILVKVGDKVEAEQSLITVEGDKASMEVPSPQAGIVKEIKVSVGDKTQTGALIMIFDSADGAADAAPAQAEEKKEAAPAAAPAAAAAKDVNVPDIGSDEVEVTEILVKVGDKVEAEQSLITVEGDKASMEVPAPFAGTVKEIKVNVGDKVSTGSLIMVFEVAGEAGAAAPAAKQEAAPAAAPAPAAGVKEVNVPDIGGDEVEVTEVMVKVGDKVAAEQSLITVEGDKASMEVPAPFAGVVKELKVNVGDKVKTGSLIMIFEVEGAAPAAAPAKQEAAAPAPAAKAEAPAAAPAAKAEGKSEFAENDAYVHATPLIRRLAREFGVNLAKVKGTGRKGRILREDVQAYVKEAIKRAEAAPAATGGGIPGMLPWPKVDFSKFGEIEEVELGRIQKISGANLSRNWVMIPHVTHFDKTDITELEAFRKQQNEEAAKRKLDVKITPVVFIMKAVAAALEQMPRFNSSLSEDGQRLTLKKYINIGVAVDTPNGLVVPVFKDVNKKGIIELSRELMTISKKARDGKLTAGEMQGGCFTISSIGGLGTTHFAPIVNAPEVAILGVSKSAMEPVWNGKEFVPRLMLPISLSFDHRVIDGADGARFITIINNTLSDIRRLVM
- soluble on expression in E. coli: soluble

Sequence: MKHPIRKTLVTLGLLLTLCLPTPVAASSRSWKSWFIEQYFWLKRDKSYYSKQDDPSFQRYLDACREQSDKPYQLDTNLVNGPLVQENLYGMQVYSWNDNGKPDQKTIIYLAGGSYLNNPTTYHINMLKTLSTSLDAKIVLPIYPKAPRYTYNYTMPKLVNLYQHYYHKNQNVFLMGDSAGGGLALGLAHALHNESVPQPKQLVLLSPWLDVTMSHPEIPEYEDADPILSSWGLKRVGELWAYSADNTNHIYVSPKNGPITYLPPITLFTGTREIFYPDIRDYAAKLKAANHNITFITQEGMNHVYPIYPIEEAKTAQYQIIDAINKTP
- soluble on expression in E. coli: not soluble

Sequence: MFDFDGYMLRKAKSVNKALEAAVQMKEPLKIHESMRYSLLAGGKRVRPMLCIAACELVGGDESTAMPAACAVEMIHTMSLMHDDLPCMDNDDLRRGKPTNHMAFGESVAVLAGDALLSFAFEHVAAATKGAPPERIVRVLGELAVSIGSEGLVAGQVVDVCSEGMAEVGLDHLEFIHHHKTAALLQGSVVLGAILGGGKEEEVAKLRKFANCIGLLFQVVDDILDVTKSSKELGKTAGKDLVADKTTYPKLIGVEKSKEFADRLNREAQEQLLHFHPHRAAPLIALANYIAYRDN
- soluble on expression in E. coli: soluble

Sequence: SGMEELEQGLLMQPWAWLQLAENSLLAKVFITKQGYALLVSDLQQVWHEQVDTSVVSQRAKELNKRLTAPPAAFLCHLDNLLRPLLKDAAHPSEATFSCDCVADALILRVRSELSGLPFYWNFHCMLASPSLVSQHLIRPLMGMSLALQCQVRELATLLHMKDLEIQDYQESGATLIRDRLKTEPFEENSFLEQFMIEKLPEACSIGDGKPFVMNLQDLYMAVTTQEVQVGQKHQ
- soluble on expression in E. coli: soluble

Sequence: MALVVEDIVKNFGEGLSETKVLKGINFEVEQGEFVILNGASGSGKTTLLTILGGLLSQTSGTVLYNDAPLFDKQHRPSDLRLEDIGFIFQSSHLVPYLKVIEQLTLVGQEAGMTKQQSSTRAIQLLKNIGLEDRLNVYPHQLSGGEKQRVAIMRAFMNNPKIILADEPTASLDADRATKVVEMIRQQIKEQQMIGIMITHDRRLFEYADRVIELEDGKITD
- soluble on expression in E. coli: not soluble

Sequence: MYRVFVFDLDGTLLNDNLEISEKDRRNIEKLSRKCYVVFASGRMLVSTLNVEKKYFKRTFPTIAYNGAIVYLPEEGVILNEKIPPEVAKDIIEYIKPLNVHWQAYIDDVLYSEKDNEEIKSYARHSNVDYRVEPNLSELVSKMGTTKLLLIDTPERLDELKEILSERFKDVVKVFKSFPTYLEIVPKNVDKGKALRFLRERMNWKKEEIVVFGDNENDLFMFEEAGLRVAMENAIEKVKEASDIVTLTNNDSGVSYVLERISTDCLDE
- soluble on expression in E. coli: soluble

Sequence: AFVQEPLPFDPGALEPYGMSAKTLEFHYGKHHKGYVDNLNKLTQDTELADKSLEDVIRTTYGDAAKVGIFNNAAQVWNHTFFWNSLKPGGGGVPTGDVAARINSAFGSYDEFKAQFKNAAATQFGSGWAWLVLEAGTLKVTKTANAENPLVHGQVPLLTIDVWEHAYYLDYQNRRPDFIDNFLNQLVNWDFVAKNLAAA
- soluble on expression in E. coli: soluble

Sequence: MGSDKIHHHHHHMSTLIRSALLVKFSEIARTLSVDPERMIRHVGADRSCIVSPDLHVPEPWLANVLDASEQASSGAAVGLLMAESWRLSDFGPISLLLQHQPTLRHALGQLETYRHLLSESVLVHVEETDAVAIVRLQLITDRPTPGRQPVELSIGAMLCLMKSMLGGKWKPRSVHFTHGAPANLHVHRRLFGTNVEFGSDFDGIVLDRQDLDRPNPLGDVNLARYAREFLDQHPRGRRISTASNVRRSVHMLLPRGQGSIEQVGQQLGMSARTLQRRLGQEGQEFSSLVNEVRRGLASRYLADLRYPVSQVAMLVGFAEVSTFSRWFSSQFGMPPTRWRTGAEH
- soluble on expression in E. coli: not soluble

Sequence: MAQQTNVAGQKTEKQRKAPFRADHVGSLLRSVPVKEARQKKAAGEMTAEQLRDIENQEITRIVEKQKEIGLDVVTDGEFRRSWWHYDFLEGLDGVEPFIPAEGIQFHNTKTKARSIKVTGKLDFTSHPALGDYQFLHEIAGNATPKLTIPSPNMLFFGEKADKGIYDDQEEYFHDMAQAYKKAIKAFYDAGCRYLQLDDTSWSLFFEDKGREVVRALGGDPETLPAIFAKTINDAVADRPDDLTITMHICRGNFRSTWAASGGYDAVAETILDGLNLDGLFLEYDDDRSGNFDPLRFVKRKDLQIVLGLITSKYGELENPEDVNAVSMKPRVLSAWTSYALEHHHHHH
- soluble on expression in E. coli: not soluble

Sequence: MAISGVTLEESVRGAIDDLRMKKSRYVMMCIGADGKKIEVTEVGERSVNYTDLKEKFSTEKPCYVAFDFEYNDAGSKREKLILIQWIPDTARPREKMMYSASRDALSSVSEGYLPIQANDESGLDAEEIIRKVRLHRSVAAALE
- soluble on expression in E. coli: soluble

Sequence: GKRLGIFTHDNPDPDSMSSAYALREIAKQFDVIADILYYGEILHQKNRAMVNLLEIPMIRAPEVDLSHYDAFAIVDSSGPGVNNSIPPDIDISIVIDHHPAEKVVAEFVDLREDVGATATILTEYIKELKITPSKILATALFFGIKSETDEFKRNTRTADFLACAFLYPFVDQDLIEKIESPSI
- soluble on expression in E. coli: not soluble

Sequence: MGSDKIHHHHHHMSVNPLFKVILHPFIKESIASLKAMTNLTGVAGDPFMDKVEDFRFKGYAVCSDVTGSLDGVIMMHHYPETAIAIGNSVCQNMFNETYAFDAINDDLRNALAEWGNTIVGRSTDLHSRHKLEYGFSSPYFVEDLTEMDKYLVGVKQVITVPIMVEGIGRYYFNLLIRDVVEQVANVDIDAQSIDVENTHTTPLPLTSTVLVVDDSAMIRKAISRFLNNLGYHNVIEADDGIGAIEAVKAGKVDFIFMDVVMTRLNGDAALAELRNMGSQVPVVMLSSVTDNILVKQCQKHGISGFIFKPINANNGAETIAKYLKIAAAVAI
- soluble on expression in E. coli: not soluble

Sequence: MGSDKIHHHHHHMREKLFWILKKYGVSDHIAKAFLEIPREEFLTKSYPLSYVYEDIVLVSYDDGEEYSTSSQPSLMALFMEWVGLDKGMRVLEIGGGTGYNAAVMSRVVGEKGLVVSVEYSRKICEIAKRNVERLGIENVIFVCGDGYYGVPEFSPYDVIFVTVGVDEVPETWFTQLKEGGRVIVPINLKLSRRQPAFLFKKKDPYLVGNYKLETRFITAGGNLGNLLERNRKLLREFPFNREILLVRSHIFVELVDLLTRRLTEIDGTFYYAGPNGVVEFLDDRMRIYGDAPEIENLLTQWESCGYRSFEYLMLHVGYNAFSHISCSI
- soluble on expression in E. coli: not soluble

Sequence: KDAVLVNSELKNIYMKDVINKTNMKITKKIGTQLIFNTNEKTRVWDDDNYNKVISSNVSPAQERRFKEEEEVDIYALIKSYSVICKEQYNYVDGGLIKTSDREKLDSTIYMNIFGEQIPLKEQSKYKITFQNKFVTFQEIDVRLRKSLMSDNRIKLYEHNSICKKGYWGIHYKDNTTKFTDLFTHPNYTDNETIDMSKVSHFDVYLNEEFSKN
- soluble on expression in E. coli: soluble
